The target in one data set is T1, ELXR4-ZIM3 (#4.A) (synthetic construct).
T1 chain: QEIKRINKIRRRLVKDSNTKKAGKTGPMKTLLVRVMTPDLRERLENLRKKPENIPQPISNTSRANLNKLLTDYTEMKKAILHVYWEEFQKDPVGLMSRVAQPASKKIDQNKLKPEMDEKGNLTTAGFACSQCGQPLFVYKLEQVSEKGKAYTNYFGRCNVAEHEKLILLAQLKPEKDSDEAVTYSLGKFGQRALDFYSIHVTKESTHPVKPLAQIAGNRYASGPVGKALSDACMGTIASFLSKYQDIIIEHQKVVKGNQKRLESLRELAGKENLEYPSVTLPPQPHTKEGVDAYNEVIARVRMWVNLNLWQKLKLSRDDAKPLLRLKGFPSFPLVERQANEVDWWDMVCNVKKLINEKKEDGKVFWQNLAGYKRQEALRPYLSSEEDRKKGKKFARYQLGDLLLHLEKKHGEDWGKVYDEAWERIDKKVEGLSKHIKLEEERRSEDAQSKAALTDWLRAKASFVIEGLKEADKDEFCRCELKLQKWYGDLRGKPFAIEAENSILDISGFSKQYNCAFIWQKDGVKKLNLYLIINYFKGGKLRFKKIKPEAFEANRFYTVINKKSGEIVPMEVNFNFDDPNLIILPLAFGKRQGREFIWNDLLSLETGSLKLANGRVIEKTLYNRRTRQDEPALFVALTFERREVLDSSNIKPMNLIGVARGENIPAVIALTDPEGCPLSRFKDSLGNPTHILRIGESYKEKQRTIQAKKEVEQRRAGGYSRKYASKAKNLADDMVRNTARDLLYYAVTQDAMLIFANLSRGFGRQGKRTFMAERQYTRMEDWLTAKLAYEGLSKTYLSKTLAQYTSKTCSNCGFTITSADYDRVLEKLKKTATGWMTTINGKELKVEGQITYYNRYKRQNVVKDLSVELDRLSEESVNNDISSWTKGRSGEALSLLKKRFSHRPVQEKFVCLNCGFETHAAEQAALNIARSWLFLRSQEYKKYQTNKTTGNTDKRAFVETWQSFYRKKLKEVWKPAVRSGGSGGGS
The data set can be described thus: cell_activity; PAM TTC; day 73. Conditions: tags: DNMT3A CD, DNMT3L ID, ZIM3 KRAB fusion, NLS.

The next data set concerns the target ELXR5-ZNF10 (#5.B) (synthetic construct). Description: cell_activity; PAM TTC; day 73. Conditions: tags: DNMT3A CD, DNMT3L ID, ZNF10 KRAB fusion, NLS.
The next data set addresses ELXR5-ZIM3 (#5.A) (synthetic construct). Description: cell_activity; PAM TTC; day 73. Conditions: tags: DNMT3A CD, DNMT3L ID, ZIM3 KRAB fusion, NLS.
The next data set deals with T2, ELXR4-ZNF10 (#4.B) (synthetic construct).
T2 chain: T1 chain
The data set can be described thus: cell_activity; PAM TTC; day 73. The following applies: tags: DNMT3A CD, DNMT3L ID, ZNF10 KRAB fusion, NLS.

Another data set has as its target T3, ELXR1-ZIM3 (#1.A) (synthetic construct).
T3 chain: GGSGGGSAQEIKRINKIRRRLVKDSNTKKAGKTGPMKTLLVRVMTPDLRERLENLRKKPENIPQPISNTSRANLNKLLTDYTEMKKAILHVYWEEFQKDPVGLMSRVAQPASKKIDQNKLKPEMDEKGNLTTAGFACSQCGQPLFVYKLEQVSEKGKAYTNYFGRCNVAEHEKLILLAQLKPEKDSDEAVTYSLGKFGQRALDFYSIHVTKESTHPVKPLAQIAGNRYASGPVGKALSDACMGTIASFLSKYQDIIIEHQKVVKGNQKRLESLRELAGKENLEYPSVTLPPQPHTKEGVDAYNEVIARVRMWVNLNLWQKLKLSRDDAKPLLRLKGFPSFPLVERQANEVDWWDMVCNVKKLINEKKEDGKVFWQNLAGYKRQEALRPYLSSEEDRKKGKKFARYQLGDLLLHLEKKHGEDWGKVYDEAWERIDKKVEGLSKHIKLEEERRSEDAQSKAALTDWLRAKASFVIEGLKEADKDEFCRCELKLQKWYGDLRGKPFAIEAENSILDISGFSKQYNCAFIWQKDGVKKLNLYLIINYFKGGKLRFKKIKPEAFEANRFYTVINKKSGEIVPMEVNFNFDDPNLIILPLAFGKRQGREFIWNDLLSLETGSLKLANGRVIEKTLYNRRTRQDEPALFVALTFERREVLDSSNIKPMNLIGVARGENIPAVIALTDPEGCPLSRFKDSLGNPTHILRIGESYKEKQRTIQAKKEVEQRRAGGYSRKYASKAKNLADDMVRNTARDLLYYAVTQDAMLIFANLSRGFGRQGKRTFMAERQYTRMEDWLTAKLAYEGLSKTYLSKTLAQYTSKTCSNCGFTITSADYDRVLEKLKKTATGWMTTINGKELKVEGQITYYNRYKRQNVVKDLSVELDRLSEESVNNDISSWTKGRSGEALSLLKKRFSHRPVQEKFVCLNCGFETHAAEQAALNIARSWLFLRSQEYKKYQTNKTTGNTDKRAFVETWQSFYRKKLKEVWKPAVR
Description: cell_activity; PAM TTC; day 50. The following applies: tags: DNMT3A CD, DNMT3L ID, ZIM3 KRAB fusion, NLS.

The target in another data set is T4, ELXR3-ZNF10 (#3.B) (synthetic construct).
T4 chain: T3 chain
Description: cell_activity; PAM TTC; day 50. Conditions: tags: DNMT3A CD, DNMT3L ID, ZNF10 KRAB fusion, NLS.

Another data set deals with T5, ELXR2-ZNF10 (#2.B) (synthetic construct).
T5 chain: T3 chain
The data set can be described thus: cell_activity; PAM TTC; day 50. Conditions: tags: DNMT3A CD, DNMT3L ID, ZNF10 KRAB fusion, NLS.

In the next data set the target is T6, ELXR3-ZIM3 (#3.A) (synthetic construct).
T6 chain: T3 chain
Description: cell_activity; PAM TTC; day 50. The following applies: tags: DNMT3A CD, DNMT3L ID, ZIM3 KRAB fusion, NLS.

Another data set concerns the target T7, ELXR2-ZIM3 (#2.A) (synthetic construct).
T7 chain: T3 chain
The data set can be described thus: cell_activity; PAM TTC; day 50. The following applies: tags: DNMT3A CD, DNMT3L ID, ZIM3 KRAB fusion, NLS.

A further data set concerns the target T8, ELXR1-ZNF10 (#1.B) (synthetic construct).
T8 chain: T3 chain
Description: cell_activity; PAM TTC; day 50. Conditions: tags: DNMT3A CD, DNMT3L ID, ZNF10 KRAB fusion, NLS.

ELXR5-ZNF10 (#5.B) (synthetic construct), sequence (chain, as listed by the source): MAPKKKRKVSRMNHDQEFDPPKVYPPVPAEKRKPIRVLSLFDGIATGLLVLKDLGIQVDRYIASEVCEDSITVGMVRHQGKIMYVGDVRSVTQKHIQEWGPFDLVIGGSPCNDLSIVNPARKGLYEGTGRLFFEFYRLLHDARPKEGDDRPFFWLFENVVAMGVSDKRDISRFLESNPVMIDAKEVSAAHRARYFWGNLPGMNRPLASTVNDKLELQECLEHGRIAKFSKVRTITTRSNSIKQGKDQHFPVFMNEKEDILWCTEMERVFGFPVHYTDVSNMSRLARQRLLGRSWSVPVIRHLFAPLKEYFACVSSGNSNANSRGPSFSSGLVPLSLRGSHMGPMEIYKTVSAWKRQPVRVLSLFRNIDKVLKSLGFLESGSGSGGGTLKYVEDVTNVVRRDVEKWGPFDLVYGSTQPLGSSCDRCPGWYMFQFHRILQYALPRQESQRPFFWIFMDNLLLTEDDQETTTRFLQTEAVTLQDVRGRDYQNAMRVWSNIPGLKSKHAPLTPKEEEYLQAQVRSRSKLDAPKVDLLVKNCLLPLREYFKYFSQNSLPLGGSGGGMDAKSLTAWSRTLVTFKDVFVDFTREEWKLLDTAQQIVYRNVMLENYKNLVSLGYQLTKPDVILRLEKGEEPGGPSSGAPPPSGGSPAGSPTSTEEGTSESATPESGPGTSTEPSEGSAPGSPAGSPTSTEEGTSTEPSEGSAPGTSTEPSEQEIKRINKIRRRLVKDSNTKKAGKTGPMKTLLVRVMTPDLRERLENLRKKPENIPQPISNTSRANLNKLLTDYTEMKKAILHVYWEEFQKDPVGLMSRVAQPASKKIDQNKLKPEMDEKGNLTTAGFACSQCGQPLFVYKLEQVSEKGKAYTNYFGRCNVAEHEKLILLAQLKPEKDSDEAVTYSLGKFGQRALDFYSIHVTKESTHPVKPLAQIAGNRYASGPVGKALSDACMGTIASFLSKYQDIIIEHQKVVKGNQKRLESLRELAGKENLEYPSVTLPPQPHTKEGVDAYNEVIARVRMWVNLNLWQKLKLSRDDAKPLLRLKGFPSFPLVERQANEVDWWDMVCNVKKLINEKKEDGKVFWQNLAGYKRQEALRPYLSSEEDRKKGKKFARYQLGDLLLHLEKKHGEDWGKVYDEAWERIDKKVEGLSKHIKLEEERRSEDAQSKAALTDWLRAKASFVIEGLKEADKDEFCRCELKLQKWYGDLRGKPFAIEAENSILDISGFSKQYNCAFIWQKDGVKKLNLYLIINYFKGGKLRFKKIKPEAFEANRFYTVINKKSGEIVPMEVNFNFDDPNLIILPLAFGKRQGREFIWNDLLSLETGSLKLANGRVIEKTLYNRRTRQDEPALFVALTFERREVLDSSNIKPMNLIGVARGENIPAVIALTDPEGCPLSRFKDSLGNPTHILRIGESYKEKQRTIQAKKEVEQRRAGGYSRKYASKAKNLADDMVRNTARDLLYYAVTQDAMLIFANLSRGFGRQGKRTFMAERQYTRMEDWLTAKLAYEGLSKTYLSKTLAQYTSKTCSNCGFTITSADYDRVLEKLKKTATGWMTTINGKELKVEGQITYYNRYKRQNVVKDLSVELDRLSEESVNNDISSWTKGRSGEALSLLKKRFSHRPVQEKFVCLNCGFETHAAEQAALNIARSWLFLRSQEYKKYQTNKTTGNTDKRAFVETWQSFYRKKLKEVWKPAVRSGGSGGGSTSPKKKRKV
ELXR5-ZIM3 (#5.A) (synthetic construct), sequence (chain, as listed by the source): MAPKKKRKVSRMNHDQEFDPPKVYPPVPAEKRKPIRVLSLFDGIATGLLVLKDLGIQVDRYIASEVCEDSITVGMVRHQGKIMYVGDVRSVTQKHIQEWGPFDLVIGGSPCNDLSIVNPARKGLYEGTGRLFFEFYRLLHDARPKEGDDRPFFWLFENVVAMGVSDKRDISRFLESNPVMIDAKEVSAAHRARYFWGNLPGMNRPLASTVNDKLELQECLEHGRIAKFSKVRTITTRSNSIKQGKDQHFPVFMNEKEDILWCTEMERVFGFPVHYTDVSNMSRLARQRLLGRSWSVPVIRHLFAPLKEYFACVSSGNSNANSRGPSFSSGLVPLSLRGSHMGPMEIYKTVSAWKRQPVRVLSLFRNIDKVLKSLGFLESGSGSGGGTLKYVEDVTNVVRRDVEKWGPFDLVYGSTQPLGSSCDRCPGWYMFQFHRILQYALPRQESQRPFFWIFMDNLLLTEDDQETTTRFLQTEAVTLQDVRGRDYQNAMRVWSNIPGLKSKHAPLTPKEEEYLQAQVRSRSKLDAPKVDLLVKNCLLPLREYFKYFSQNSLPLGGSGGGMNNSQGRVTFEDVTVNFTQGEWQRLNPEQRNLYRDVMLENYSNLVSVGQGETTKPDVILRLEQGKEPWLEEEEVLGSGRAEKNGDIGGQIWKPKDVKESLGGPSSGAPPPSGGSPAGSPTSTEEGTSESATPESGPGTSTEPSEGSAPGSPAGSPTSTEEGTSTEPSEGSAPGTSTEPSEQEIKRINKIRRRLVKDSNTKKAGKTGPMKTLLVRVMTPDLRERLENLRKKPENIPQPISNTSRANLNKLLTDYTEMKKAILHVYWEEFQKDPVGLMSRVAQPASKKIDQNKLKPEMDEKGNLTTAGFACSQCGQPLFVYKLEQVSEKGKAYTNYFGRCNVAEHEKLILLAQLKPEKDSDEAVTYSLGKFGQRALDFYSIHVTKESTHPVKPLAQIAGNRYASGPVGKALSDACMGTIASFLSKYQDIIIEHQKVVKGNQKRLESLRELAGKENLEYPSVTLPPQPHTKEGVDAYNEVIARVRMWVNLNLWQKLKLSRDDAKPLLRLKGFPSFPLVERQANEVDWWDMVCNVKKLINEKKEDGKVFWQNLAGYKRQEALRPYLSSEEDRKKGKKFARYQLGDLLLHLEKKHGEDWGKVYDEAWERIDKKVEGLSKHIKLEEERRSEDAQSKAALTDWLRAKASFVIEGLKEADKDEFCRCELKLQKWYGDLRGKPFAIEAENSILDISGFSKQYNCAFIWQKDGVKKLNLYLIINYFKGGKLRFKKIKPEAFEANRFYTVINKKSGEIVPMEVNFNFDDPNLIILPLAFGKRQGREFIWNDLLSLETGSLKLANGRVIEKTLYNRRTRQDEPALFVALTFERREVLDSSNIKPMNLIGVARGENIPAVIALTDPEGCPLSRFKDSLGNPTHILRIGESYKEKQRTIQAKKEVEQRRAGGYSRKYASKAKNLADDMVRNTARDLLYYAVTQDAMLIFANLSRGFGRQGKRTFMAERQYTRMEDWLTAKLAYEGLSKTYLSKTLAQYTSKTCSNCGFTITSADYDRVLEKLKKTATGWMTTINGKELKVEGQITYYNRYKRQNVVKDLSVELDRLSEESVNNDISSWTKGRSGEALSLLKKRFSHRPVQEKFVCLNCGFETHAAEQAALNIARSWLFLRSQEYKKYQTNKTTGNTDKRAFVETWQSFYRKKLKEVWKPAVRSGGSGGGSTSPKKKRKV

B1: gRNA scaffold 174 + spacer 7.37 ; B2M target 7.37 (ssRNA ; dsDNA)
RNA: ACUGGCGCUUUUAUCUGAUUACUUUGAGAGCCAUCACCAGCGACUAUGUCGUAGUGGGUAAAGCUCCCUCUUCGGAGGGAGCAUCAAAGGGCCGAGAUGUCUCGCUCCG
DNA 1: GGCCGAGATGTCTCGCTCCG
DNA 2: CGGAGCGAGACATCTCGGCC
Regarding B1, the activity with ELXR4-ZIM3 (#4.A) was 69 % HLA-negative cells; with ELXR5-ZNF10 (#5.B), 60.8 % HLA-negative cells; with ELXR5-ZIM3 (#5.A), 74.9 % HLA-negative cells; with ELXR4-ZNF10 (#4.B) it was 55.2 % HLA-negative cells; in the data set with ELXR1-ZIM3 (#1.A), 73.7 % HLA-negative cells; in the data set with ELXR3-ZNF10 (#3.B) it was 17.1 % HLA-negative cells. The activity turned out to be 36.9 % HLA-negative cells in the data set with ELXR2-ZNF10 (#2.B), 17.5 % HLA-negative cells with ELXR3-ZIM3 (#3.A), 58.8 % HLA-negative cells in the data set with ELXR2-ZIM3 (#2.A) and 70 % HLA-negative cells in the data set with ELXR1-ZNF10 (#1.B).
